In the data set the test system is CC(=O)SCCNC(=O)CCNC(=O)[C@H](O)C(C)(C)COP(=O)(O)OP(=O)(O)OC[C@H]1O[C@@H](n2cnc3c(N)ncnc32)[C@H](O)[C@@H]1OP(=O)(O)O. In words: discontinuous colorimetric DTNB assay. Type of data set: biochemical, Pseudomonas aeruginosa. The following applies: 5 mM polymyxin B constant, 50 mM Tris-HCl pH 8.0, 37 °C.

In paper PMC6474815 one finds Km, kcat and kcat/Km data, which are given here for two substances.

What is called Km is the concentration of substrate that gives half-maximal velocity. What is called kcat is the maximal rate divided by the concentration of active sites. For orientation: kcat/Km means the turnover number divided by the Michaelis constant.

Take “PA3944 (cleaved) (Pseudomonas aeruginosa PAO1)”: the Km is 137 ± 20 µM, the kcat is 0.61 s⁻¹ and the kcat/Km turned out to be 4450 M⁻¹ s⁻¹.

For the substance “PA3944 (tagged) (Pseudomonas aeruginosa PAO1)”, the Km amounted to 118 ± 28 µM, the kcat came out at 0.602 s⁻¹ and the catalytic efficiency (kcat/Km) was 5100 M⁻¹ s⁻¹.
